Assay [1] deals with T1, carcinoembryonic antigen (CEA) (human, UniProt P06731 35-685, biotinylated with EZ-Link Sulfo-NHS-LC-Biotin for the SPR assay).
T1 construct: Purified CEA; biotinylated and immobilised on a streptavidin chip for SPR, unlabelled in the immunoreactivity assay; also called purified CEA; CEA-biotin
T1 sequence (looked up): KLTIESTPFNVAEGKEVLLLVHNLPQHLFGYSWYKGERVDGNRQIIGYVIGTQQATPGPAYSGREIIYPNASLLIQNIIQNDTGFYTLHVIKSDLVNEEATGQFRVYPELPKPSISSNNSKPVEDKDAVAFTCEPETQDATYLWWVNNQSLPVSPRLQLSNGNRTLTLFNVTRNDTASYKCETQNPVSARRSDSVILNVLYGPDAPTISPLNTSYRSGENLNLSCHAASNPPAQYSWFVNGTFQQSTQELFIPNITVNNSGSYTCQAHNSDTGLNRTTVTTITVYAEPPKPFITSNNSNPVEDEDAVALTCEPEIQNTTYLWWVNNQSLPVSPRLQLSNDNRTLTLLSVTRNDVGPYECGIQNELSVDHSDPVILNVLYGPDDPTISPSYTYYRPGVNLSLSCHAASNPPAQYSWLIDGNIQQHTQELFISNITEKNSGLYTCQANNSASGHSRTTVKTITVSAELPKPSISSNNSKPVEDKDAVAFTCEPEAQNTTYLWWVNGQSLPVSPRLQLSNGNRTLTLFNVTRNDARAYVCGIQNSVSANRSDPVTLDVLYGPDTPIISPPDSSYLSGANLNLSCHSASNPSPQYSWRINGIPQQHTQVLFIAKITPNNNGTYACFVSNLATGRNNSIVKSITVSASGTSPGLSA
The assay is described as follows: SPR, Biacore 1000; biotinylated CEA on SA chip, antibody injected at 3.12-100 nM, bivalent analyte model. The method, then: (§1) The binding affinity of the antibodies to purified CEA was determined by surface plasmon resonance (SPR) on a Biacore 1000 (Biacore AB, Uppsala, SW). CEA was biotinylated using the EZ-Link Sulfo-NHS-LC-Biotin kit (Pierce, Rockford, Ill.) and immobilized to a SA biosensor chip (Biacore Inc.) in HBS buffer. A series of increasing antibody concentrations (3.12, 6.25, 12.5, 25, 50, and 100 nM) were injected over a low density (175 RU) of the immobilized CEA-biotin for the association and dissociation phase, with regeneration by a single pulse of 6 M GuHCl. The data were analyzed by BIAevaluation (v3.0) software using the bivalent analyte model to calculate the KA=kₒₙ/koff. Antibody concentrations were determined by amino acid analysis.
A general note: SPR reads the build-up and loss of mass on a sensor chip optically.

In assay [2] the target is T1, carcinoembryonic antigen (CEA). The assay is described as follows: SPR, Biacore 1000; biotinylated CEA on SA chip, antibody injected at 3.12-100 nM, bivalent analyte model; KA = kon/koff. The method, then:
as §1

The koff is the rate constant with which the complex falls apart. Higher therefore signals a short-lived complex. For orientation: kon means the rate constant with which the complex forms. The low end stands for slow association, the high end for fast association.

B1: humanized T84.66 antibody M5A (antibody, V domains shown)
VH: EVQLVESGGGLVQPGGSLRLSCAASGFNIKDTYMHWVRQAPGKGLEWVARIDPANGNSKYADSVKGRFTISADTSKNTAYLQMNSLRAEDTAVYYCAPFGYYVSDYAMAYWGQGTLVTVSS
VL: DIQLTQSPSSLSASVGDRVTITCRAGESVDIFGVGFLHWYQQKPGKAPKLLIYRASNLESGVPSRFSGSGSRTDFTLTISSLQPEDFATYYCQQTNEDPYTFGQGTKVEIK
notes: For the immunoreactivity assay the antibody was labelled with 131I; also called M5A mAb; 131I-M5A
As to B1, in assay [1], the off-rate constant (koff) turned out to be 3.01e-05 s⁻¹ and the on-rate constant (kon) amounted to 330000 M⁻¹ s⁻¹. This molecule registered a Ka in assay [2] of 1.1e+10 M⁻¹.

B2: humanized T84.66 antibody M5B (antibody, V domains shown)
VH: EVQLVESGGGLVQPGGSLRLSCAASGFNIKDTYMHWVRQAPGKGLEWVARIDPANGNSKYVPKFQGRATISADTSKNTAYLQMNSLRAEDTAVYYCAPFGYYVSDYAMAYWGQGTLVTVSS
VL: DIQLTQSPSSLSASVGDRVTITCRAGESVDIFGVGFLHWYQQKPGKAPKLLIYRASNLESGVPSRFSGSGSRTDFTLTISSLQPEDFATYYCQQTNEDPYTFGQGTKVEIK
notes: Expressed in NS0 cells as an intact antibody with constant regions of a human IgG and a kappa light chain; For the immunoreactivity assay the antibody was labelled with 131I; also called M5B mAb
Regarding B2, in assay [1], the koff came out at 2.56e-05 s⁻¹ and the on-rate constant (kon) came to 488000 M⁻¹ s⁻¹. The molecule further displayed a Ka in assay [2] of 1.9e+10 M⁻¹.

The values above are taken from patent publication US20050244333A1 (CITY OF HOPE, published 2005).
